For seven molecules, binding result and Kd results are on record in publication PMC10716145, “ZNF524 directly interacts with telomeric DNA and supports telomere integrity”.

The term Kd denotes the free concentration of one partner at which half of the binding sites on the other are occupied at equilibrium, for simple one-to-one binding.

Numbering of substitutions follows the chain as printed.

One data set has as its target T1, ZNF524 ZF1-4 (crystal) (human, UniProt Q96C55 107-237).
T1 sequence: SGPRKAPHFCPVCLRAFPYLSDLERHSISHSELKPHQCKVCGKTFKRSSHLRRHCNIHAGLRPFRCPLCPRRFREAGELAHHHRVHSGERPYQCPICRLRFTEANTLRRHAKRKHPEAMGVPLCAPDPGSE
In words: crystal structure 2.40 A; Zn2+; ITC: 20 mM Tris-HCl pH 7.5, 150 mM NaCl, 20 C; pull-down: 50 mM Tris-HCl pH 7.5, 150 mM NaCl, 0.5% IGEPAL, 5 mM MgCl2, 1 mM DTT, salmon sperm DNA, 4 C. The following applies: protein: recombinant; tags: none (GST removed by TEV); 5' overhang 1 nt at each end (A and T).

Data set [1] has as its target T2, ZNF524 ZF1-4 minimal domain (human, UniProt Q96C55 110-223).
T2 sequence: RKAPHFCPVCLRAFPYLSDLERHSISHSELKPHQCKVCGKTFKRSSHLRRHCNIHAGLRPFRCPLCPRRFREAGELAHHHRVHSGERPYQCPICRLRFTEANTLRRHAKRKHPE
In words: ITC; annealed in 100 mM NaCl; ITC: 20 mM Tris-HCl pH 7.5, 150 mM NaCl, 20 C; pull-down: 50 mM Tris-HCl pH 7.5, 150 mM NaCl, 0.5% IGEPAL, 5 mM MgCl2, 1 mM DTT, salmon sperm DNA, 4 C. The following applies: protein: recombinant, tags: none (GST removed by TEV), single strand.

Data set [2] has as its target T2, ZNF524 ZF1-4 minimal domain. In words: ITC; ITC: 20 mM Tris-HCl pH 7.5, 150 mM NaCl, 20 C; pull-down: 50 mM Tris-HCl pH 7.5, 150 mM NaCl, 0.5% IGEPAL, 5 mM MgCl2, 1 mM DTT, salmon sperm DNA, 4 C. As to conditions: protein: recombinant; tags: none (GST removed by TEV); blunt. Background: In ITC the heat of successive injections is recorded.
A further data set concerns the target T3, ZNF524 ZF2M (human, UniProt Q96C55 110-223, R153A;S155A;H156A;R159A).
T3 sequence: T2 sequence with R44A, S46A, H47A, R50A
The data set is described as above. As to conditions: protein: recombinant; tags: none (GST removed by TEV); blunt.

For the next data set, the target named is T4, ZNF524 ZF1-4 R159A (human, UniProt Q96C55 110-223, R159A).
T4 sequence: T2 sequence with R50A
Described as above. The following applies: protein: recombinant; tags: none (GST removed by TEV); blunt.

A further data set has as its target T5, ZNF524 ZF1-4 R180A (human, UniProt Q96C55 110-223, R180A).
T5 sequence: T2 sequence with R71A
Described as above. The following applies: protein: recombinant; tags: none (GST removed by TEV); blunt.

A further data set deals with T6, ZNF524 ZF1-4 N211G (human, UniProt Q96C55 110-223, N211G).
T6 sequence: T2 sequence with N102G
Described as above. The following applies: protein: recombinant; tags: none (GST removed by TEV); blunt.

The next data set has as its target T7, ZNF524 ZF1-4 R131A (human, UniProt Q96C55 110-223, R131A).
T7 sequence: T2 sequence with R22A
The data set is described as above. As to conditions: protein: recombinant; tags: none (GST removed by TEV); blunt.

The target in another data set is T8, ZNF524 ZF1-4 E184A (human, UniProt Q96C55 110-223, E184A).
T8 sequence: T2 sequence with E75A
Described as above. As to conditions: protein: recombinant; tags: none (GST removed by TEV); blunt.

The target of another data set is T9, ZNF524 ZF1-4 E181A (human, UniProt Q96C55 110-223, E181A).
T9 sequence: T2 sequence with E72A
The data set is described as above. As to conditions: protein: recombinant; tags: none (GST removed by TEV); blunt.

A further data set addresses T10, ZNF524 ZF1-4 H156A (human, UniProt Q96C55 110-223, H156A).
T10 sequence: T2 sequence with H47A
Described as above. As to conditions: protein: recombinant; tags: none (GST removed by TEV); blunt.

For data set [3], the target named is T11, ZNF524 ZF1-3 (ZF4 removed) (human, UniProt Q96C55 110-196).
T11 sequence: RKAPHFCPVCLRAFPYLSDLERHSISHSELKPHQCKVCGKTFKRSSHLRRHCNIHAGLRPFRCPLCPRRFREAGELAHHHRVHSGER
Described as above. The following applies: protein: recombinant; tags: none (GST removed by TEV); blunt.

The next data set deals with T12, ZNF524 ZF1-4 R153A (human, UniProt Q96C55 110-223, R153A).
T12 sequence: T2 sequence with R44A
The description is as above. As to conditions: protein: recombinant; tags: none (GST removed by TEV); blunt.

In another data set the target is T13, ZNF524 ZF3-4 (human, UniProt Q96C55 166-223).
T13 sequence: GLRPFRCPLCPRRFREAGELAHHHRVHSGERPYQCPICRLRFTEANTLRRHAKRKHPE
The description is as above. As to conditions: protein: recombinant; tags: none (GST removed by TEV); blunt.

In a further data set the target is T14, ZNF524 ZF2-3 (human, UniProt Q96C55 138-196).
T14 sequence: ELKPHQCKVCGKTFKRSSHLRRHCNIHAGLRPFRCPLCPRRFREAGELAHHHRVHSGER
The description is as above. The following applies: protein: recombinant; tags: none (GST removed by TEV); blunt.

The target in the next data set is T15, ZNF524 ZF1-4 S155A (human, UniProt Q96C55 110-223, S155A).
T15 sequence: T2 sequence with S46A
The description is as above. The following applies: protein: recombinant; tags: none (GST removed by TEV); blunt.

Data set [4] concerns the target T16, ZNF524 ZF2-4 (ZF1 removed) (human, UniProt Q96C55 138-223).
T16 sequence: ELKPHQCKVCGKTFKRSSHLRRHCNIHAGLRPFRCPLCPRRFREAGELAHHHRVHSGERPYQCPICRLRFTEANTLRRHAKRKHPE
The data set is described as above. As to conditions: protein: recombinant; tags: none (GST removed by TEV); blunt.

A further data set deals with T17, ZNF524 ZF1-4 R215A (human, UniProt Q96C55 110-223, R215A).
T17 sequence: T2 sequence with R106A
Described as above. The following applies: protein: recombinant; tags: none (GST removed by TEV); blunt.

B1: telomeric crystal duplex (dsDNA)
DNA 1: AGGGTTAGGGTTAGG
DNA 2: TCCTAACCCTAACCC
Turning to B1, the binding result with ZNF524 ZF1-4 (crystal) is “binds”.

B2: (TTAGGG)4-ssDNA (ssDNA)
DNA: TTAGGGTTAGGGTTAGGGTTAGGG
B2: in data set [1], the binding result is reported as “no binding”.

B3: GTGAGT duplex (dsDNA)
DNA 1: GTGTGAGTGTGA
DNA 2: TCACACTCACAC
In the case of B3, the binding result in data set [2] was “no binding”.

B4: TGAGGG duplex (dsDNA)
DNA 1: GGTGAGGGTGAG
DNA 2: CTCACCCTCACC
For the molecule B4, in data set [2], the equilibrium dissociation constant (Kd) turned out to be 270 ± 110 nM.

B5: TTAGGG 12-bp duplex (dsDNA)
DNA 1: GGTTAGGGTTAG
DNA 2: CTAACCCTAACC
In the case of B5, the binding result in the data set with ZNF524 ZF2M and with ZNF524 ZF3-4 was “no binding” each time. The Kd in the data set with ZNF524 ZF1-4 R159A was determined as 100 ± 90 nM; with ZNF524 ZF1-4 R180A, 410 ± 80 nM; with ZNF524 ZF1-4 N211G, 170 ± 30 nM; with ZNF524 ZF1-4 R131A, 340 ± 50 nM; in the data set with ZNF524 ZF1-4 E184A, 230 ± 130 nM; with ZNF524 ZF1-4 E181A, 420 ± 90 nM. The Kd stood at 60 ± 40 nM with ZNF524 ZF1-4 H156A; 590 ± 150 nM in [3]; 150 ± 40 nM with ZNF524 ZF1-4 R153A; 90 ± 20 nM in [2]; 1210 ± 790 nM with ZNF524 ZF2-3; 250 ± 30 nM with ZNF524 ZF1-4 S155A. Also, the Kd was determined as 620 ± 100 nM in data set [4] and 220 ± 60 nM in the data set with ZNF524 ZF1-4 R215A.

B6: TTGGGG duplex (dsDNA)
DNA 1: GGTTGGGGTTGG
DNA 2: CCAACCCCAACC
Consider B6, for which, in data set [2], the dissociation constant (Kd) came out at 330 ± 130 nM.

B7: TCAGGG duplex (dsDNA)
DNA 1: GGTCAGGGTCAG
DNA 2: CTGACCCTGACC
B7: the Kd in data set [2] came to 280 ± 40 nM.
